Test results from PMC2955198 (Cell, 2010).

Biological target: T1, Csm1/Lrs4 complex (S. cerevisiae, UniProt P25651 1-190; Q04087 1-347)
T1 sequence (looked up) 1: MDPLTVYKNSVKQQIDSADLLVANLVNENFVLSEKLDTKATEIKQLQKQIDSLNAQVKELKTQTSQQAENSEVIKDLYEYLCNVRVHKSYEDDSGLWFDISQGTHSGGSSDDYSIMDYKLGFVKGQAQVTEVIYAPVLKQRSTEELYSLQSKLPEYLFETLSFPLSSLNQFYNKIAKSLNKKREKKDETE
T1 sequence (looked up) 2: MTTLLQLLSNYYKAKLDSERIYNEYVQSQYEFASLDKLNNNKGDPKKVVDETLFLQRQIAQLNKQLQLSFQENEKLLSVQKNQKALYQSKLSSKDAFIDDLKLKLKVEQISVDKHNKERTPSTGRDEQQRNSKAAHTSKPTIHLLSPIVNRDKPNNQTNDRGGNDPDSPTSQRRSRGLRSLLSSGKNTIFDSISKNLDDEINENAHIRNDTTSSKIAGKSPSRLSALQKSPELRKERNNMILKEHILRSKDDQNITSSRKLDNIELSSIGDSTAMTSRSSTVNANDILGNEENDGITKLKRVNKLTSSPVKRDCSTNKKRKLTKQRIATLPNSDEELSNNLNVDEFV
Assay: SEC

stoichiometry N: ≤ 4 MIND complexes per Csm1/Lrs4 complex
B1: purified four-protein MIND (Mtw1 including Nsl1, Nnf1, and Dsn1) kinetochore complex (complex, S. cerevisiae)
chain 1: MSAPTMRSTSILTEHLGYPPISLVDDIINAVNEIMYKCTAAMEKYLLSKSKIGEEDYGEEIKSGVAKLESLLENSVDKNFDKLELYVLRNVLRIPEEYLDANVFRLENQKDLVIVDENELKKSEEKLREKVNDVELAFKKNEMLLKRVTKVKRLLFTIRGFKQKLNELLKCKDDVQLQKILESLKPIDDTMTLLTDSLRKLYVDSESTSSTEEVEALLQRLKTNGKQNNKDFRTRYIDIRTNNVLRKLGLLGDKEDEKQSAKPDARTQAGDIVSIDIEEPQLDLLDDVL
chain 2: MSQGQSKKLDVTVEQLRSIYHQFHDILEEKTDLHLPKKEYDDDAVRREVQIQLQEFLLSAMTMASKSLEVVNADTVGKTVKQLIMESQEKYMEPFDLDLNEQVRKMYQEWEDETVKVAQLRQTGPAKINEVYNNSKDEYLAQLDGRIGVLQARMMQQQSADHDDSTDDADDHINWEHIKQDYVASLNELYQTQQDLPKVRYNVEKVKRLMDFLEED
chain 3: MVNSHGIRYIRLKQVFNRALDQSISKLQSWDKVSSCFPQYVNSKQGAINVANCQRQLTEFWTELCQREFKEIMEERNVEQKLNELDELILEAKERYTDRDQDEVNKGPAIDELSSKELVECHLYSQRMHAIHEIDERLAKVNEMNDQLAQELKDLETQVEVEKNEIGKMYDEYLGSHTDQPANVLLVQSLNDMVLELKENY
chain 4: MSLEPTQTVSGTPPMLHQRTHKQVYPLRMETIPILESDSKATLQSNEPTQKDEEETEYFENKQSVSNLSPDLKFKRHKNKHIQGFPTLGERLDNLQDIKKAKRVENFNSSAPIADDNHSGDATANATANATANATANVNASAMPAPYMPYYYYYHPMNAPTPAMIPYPGSPMHSIMPNSSLQPFYSQPTAAGGPDMTTPQNISSSQQLLPAPQLFPYGSFHQQQLQQPHYIQRTRERKKSIGSQRGRRLSMLASQANGGSTIISPHKDIPEEDFYTVVGNASFGKNLQIRQLFNWCLMRSLHKLELKAKNQEEEGELEHLTKKSKLESTKAETDYVDPKRLAMVIIKEFVDDLKKDHIAIDWEDEEKYEDEDEEKILDNTENYDDTELRQLFQENDDDDDDDDEVDYSEIQRSRRKFSERRKALPKEPKKLLPNSKNVENTKNLSILTSKVNAIKNEVKEWAVTLDTSRPDLEWQELTSFSSQPLEPLSDTEEPDLAIADVETKLETKVDELRYQSHILNSHSLALNEITNSKVNKLNIETMRKISSETDDDHSQVINPQQLLKGLSLSFSKKLDL
